Some targets named below: SARS-CoV-2 XBB.1.5 RBD (SARS-CoV-2, UniProt P0DTC2); SARS-CoV-2 BA.1 RBD (SARS-CoV-2, UniProt P0DTC2); SARS-CoV-2 BQ.1.1 RBD (SARS-CoV-2, UniProt P0DTC2); SARS-CoV-2 CH.1.1 RBD (SARS-CoV-2 Omicron CH.1.1, strain); SARS-CoV-2 BA.2 RBD (SARS-CoV-2 Omicron BA.2, strain); SARS-CoV-2 BA.2.75.2 RBD (SARS-CoV-2 Omicron BA.2.75.2, strain); SARS-CoV-2 XBB.1 RBD (SARS-CoV-2 Omicron XBB.1, strain).

Holding throughout (assay): SPR
What all share (settings): both partners purified

B1: VIR-7229 Fab fragment (Fab, V domains shown)
VH: EVQLVESGGSVVQPGRALRLSCAASGITFSSFGMYWVRQAPGKGLEWLGYIAYDGSDTYYADSVKGRFTISRDNSKNTLYLQMNSLRIEDTAVYYCAKDYYPLLSYYYGLDVWGQGTTVTVSS
VL: QSVLTQPRSVSGSPGQSVTISCTGTSSDVGAYNYVSWYQQHPGKAPKFMIYDVDQRPSGVPDRFSGSKSGNTASLIISGLQAEDEADYYCSSYAGSYIWVFGGGTQLTVL
notes: source: ExpiCHO (IgG1); Fab by fragmentation of the IgG with the FabLACTICA Fab kit
Turning to B1, the Kd (as a rule, the constant that tells how readily two partners part at equilibrium) stood at 0.06 nM with SARS-CoV-2 XBB.1.5 RBD; 0.434 nM with SARS-CoV-2 BA.1 RBD; 0.0993 nM with SARS-CoV-2 BQ.1.1 RBD; 0.12 nM in the experiment with SARS-CoV-2 CH.1.1 RBD; 0.396 nM with SARS-CoV-2 BA.2 RBD; 0.284 nM with SARS-CoV-2 BA.2.75.2 RBD. In the experiment with SARS-CoV-2 XBB.1 RBD, this molecule returned a Kd of 0.21 nM. Further, the koff – broadly, the rate constant with which the complex falls apart – with SARS-CoV-2 XBB.1.5 RBD was determined as 4.09e-05 s⁻¹; with SARS-CoV-2 BA.1 RBD, 0.000124 s⁻¹; with SARS-CoV-2 BQ.1.1 RBD, 5.63e-05 s⁻¹; in the experiment with SARS-CoV-2 CH.1.1 RBD it was 6.63e-05 s⁻¹; with SARS-CoV-2 BA.2 RBD it was 9.72e-05 s⁻¹; with SARS-CoV-2 BA.2.75.2 RBD, 0.000117 s⁻¹. Also, in the experiment with SARS-CoV-2 XBB.1 RBD, the koff is 0.000108 s⁻¹. For the same molecule, the kon (in general, the rate constant with which the complex forms) is 752000 M⁻¹ s⁻¹ in the experiment with SARS-CoV-2 XBB.1.5 RBD; 285000 M⁻¹ s⁻¹ with SARS-CoV-2 BA.1 RBD; 582000 M⁻¹ s⁻¹ with SARS-CoV-2 BQ.1.1 RBD; 586000 M⁻¹ s⁻¹ with SARS-CoV-2 CH.1.1 RBD; 245000 M⁻¹ s⁻¹ in the experiment with SARS-CoV-2 BA.2 RBD; 431000 M⁻¹ s⁻¹ with SARS-CoV-2 BA.2.75.2 RBD. In the experiment with SARS-CoV-2 XBB.1 RBD, this molecule yielded a kon of 524000 M⁻¹ s⁻¹.

The values are drawn from paper PMC11645210 (Cell, 2024).
